Test results as given in PMC8096781.

Molecular target: endogenous PKM2 (HeLa cells) (human (endogenous in HeLa)) (UniProt P14618)
Assay: SEC; gel chromatography (Superdex 200, cold PBS, 4 °C, 0.3 mL/min) of extracts of HeLa cells with vector, FOXM1A or FOXM1D; fractions analysed by western blot

endogenous PKM2 (HeLa cells), P14618 1-531 (enzyme; other documents disagree on this pair), sequence (P14618 whole entry): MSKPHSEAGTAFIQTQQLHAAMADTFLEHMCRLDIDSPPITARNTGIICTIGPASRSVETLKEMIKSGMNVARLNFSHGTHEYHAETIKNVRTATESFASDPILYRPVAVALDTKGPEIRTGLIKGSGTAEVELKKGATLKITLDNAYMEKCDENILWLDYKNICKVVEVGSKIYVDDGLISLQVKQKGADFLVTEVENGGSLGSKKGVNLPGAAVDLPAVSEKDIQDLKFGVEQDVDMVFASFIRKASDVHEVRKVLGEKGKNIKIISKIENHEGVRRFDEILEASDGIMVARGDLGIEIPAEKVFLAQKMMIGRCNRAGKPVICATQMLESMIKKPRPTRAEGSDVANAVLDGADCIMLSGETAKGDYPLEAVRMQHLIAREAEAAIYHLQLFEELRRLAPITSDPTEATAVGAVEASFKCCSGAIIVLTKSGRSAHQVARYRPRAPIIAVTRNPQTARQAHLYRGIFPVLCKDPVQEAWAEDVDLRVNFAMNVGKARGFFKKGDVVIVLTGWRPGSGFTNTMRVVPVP

A stoichiometry N of 2 was found for “endogenous PKM2 (HeLa cells), P14618 1-531 (enzyme; other documents disagree on this pair)” in this work.
